Paper PMC10659161, “Cryo-electron tomography reveals the binding and release states of the major adhesion complex from Mycoplasma genitalium” (PLOS Pathogens, 2023)

Molecular target: T1, P140 (Mycoplasma genitalium, UniProt P20796 59-1444)
T1 construct: P140 of the nap particle adhesion complex, Mycoplasma genitalium G37; endogenous and not truncated, with stalk, transmembrane helix and intracellular region (residues up to 1444 are spoken of); The same endogenous protein was also studied in the nap particle purified from M. genitalium; that purification is described in an earlier publication of the authors; also called P140 adhesin of the nap …
T1 sequence: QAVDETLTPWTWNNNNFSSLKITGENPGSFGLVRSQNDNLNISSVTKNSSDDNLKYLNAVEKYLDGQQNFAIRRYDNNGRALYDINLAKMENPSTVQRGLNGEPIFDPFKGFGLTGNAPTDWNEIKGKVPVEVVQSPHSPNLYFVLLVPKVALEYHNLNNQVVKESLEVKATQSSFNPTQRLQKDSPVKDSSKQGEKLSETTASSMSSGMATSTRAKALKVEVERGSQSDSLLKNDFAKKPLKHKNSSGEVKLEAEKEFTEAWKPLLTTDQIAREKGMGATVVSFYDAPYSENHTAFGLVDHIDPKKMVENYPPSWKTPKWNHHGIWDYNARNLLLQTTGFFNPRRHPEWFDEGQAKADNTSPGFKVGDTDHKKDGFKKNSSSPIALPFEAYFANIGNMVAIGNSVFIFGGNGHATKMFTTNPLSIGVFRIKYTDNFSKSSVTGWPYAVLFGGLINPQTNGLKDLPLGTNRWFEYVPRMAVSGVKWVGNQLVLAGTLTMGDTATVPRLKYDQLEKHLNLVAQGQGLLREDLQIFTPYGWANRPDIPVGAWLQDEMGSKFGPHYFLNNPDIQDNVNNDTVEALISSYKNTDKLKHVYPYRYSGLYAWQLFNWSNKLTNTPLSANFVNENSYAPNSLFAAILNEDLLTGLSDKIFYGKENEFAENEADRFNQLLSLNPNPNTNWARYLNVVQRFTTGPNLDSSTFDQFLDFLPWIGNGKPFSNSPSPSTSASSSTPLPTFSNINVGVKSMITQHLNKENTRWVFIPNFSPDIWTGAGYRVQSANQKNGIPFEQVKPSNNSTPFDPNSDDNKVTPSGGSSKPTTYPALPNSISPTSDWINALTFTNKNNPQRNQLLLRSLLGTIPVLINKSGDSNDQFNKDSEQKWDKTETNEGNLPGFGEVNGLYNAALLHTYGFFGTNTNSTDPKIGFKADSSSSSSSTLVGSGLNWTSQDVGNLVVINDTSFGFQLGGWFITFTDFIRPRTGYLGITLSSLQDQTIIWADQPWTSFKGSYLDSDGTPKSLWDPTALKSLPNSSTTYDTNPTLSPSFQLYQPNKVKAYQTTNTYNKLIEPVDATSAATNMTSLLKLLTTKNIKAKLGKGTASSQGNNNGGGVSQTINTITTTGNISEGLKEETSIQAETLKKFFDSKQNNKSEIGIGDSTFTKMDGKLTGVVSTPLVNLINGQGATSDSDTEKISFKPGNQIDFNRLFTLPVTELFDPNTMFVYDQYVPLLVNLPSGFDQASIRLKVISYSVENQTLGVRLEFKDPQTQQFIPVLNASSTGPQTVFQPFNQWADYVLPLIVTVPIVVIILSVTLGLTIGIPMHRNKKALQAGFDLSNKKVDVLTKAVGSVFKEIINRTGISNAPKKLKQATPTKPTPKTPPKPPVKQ
Assay: cryo-EM structure; single-particle cryo-EM of the isolated nap particle purified from M. genitalium, with and without soaking in 10 mM 6'-SL (75 mM Tris-HCl pH 7.4, 400 mM NaCl, 5% glycerol, 0.5% octylglucoside); heterodimer classes at 3.3 and 3.7 Å, tetramer classes at 8.3, 7.3 and 7.7 Å
Settings: both partners purified

B1: P110 (natural protein)
chain: NTFLVKEDSKNVTAYTPFATPITDSKSDLVSLAQLDSSYQIADQTIHNTNLFVLFKSRDVKVKYESSGSNNISFDSTSQGEKPSYVVEFTNSTNIGIKWTMVKKYQLDVPNVSSDMNQVLKNLILEQPLTKYTLNSSLAKEKGKTQREVHLGSGQANQWTSQRNQHDLNNNPSPNASTGFKLTTGNAYRKLSESWPIYEPIDGTKQGKGKDSSGWSSTEENEAKNDAPSVSGGGSSSGTFNKYLNTKQALESIGILFDDQTPRNVITQLYYASTSKLAVTNNHIVVMGNSFLPSMWYWVVERSAQENASNKPTWFANTNLDWGEDKQKQFVENQLGYKETTSTNSHNFHSKSFTQPAYLISGIDSVNDQIIFSGFKAGSVGYDSSSSSSSSSSSSTKDQALAWSTTTSLDSKTGYKDLVTNDTGLNGPINGSFSIQDTFSFVVPYSGNHTNNGTTGPIKTAYPVKKDQKSTVKINSLINATPLNSYGDEGIGVFDALGLNYNFKSNQERLPSRTDQIFVYGIVSPNELRSAKSSADSTGSDTKVNWSNTQSRYLPVPYNYSEGIIDADGFKRPENRGASVTTFSGLKSIAPDGFANSIANFSVGLKAGIDPNPVMSGKKANYGAVVLTRGGVVRLNFNPGNDSLLSTTDNNIAPISFSFTPFTAAESAVDLTTFKEVTYNQESGLWSYIFDSSLKPSHDGKQTPVTDNMGFSVITVSRTGIELNQDQATTTLDVAPSALAVQSGIQSTTQTLTGVLPLSEEFSAVIAKDSDQNKIDIYKNNNGLFEIDTQLSNSVATNNGGLAPSYTENRVDAWGKVEFADNSVLQARNLVDKTVDEIINTPEILNSFFRFTPAFEDQKATLVATKQSDTSLSVSPRIQFLDGNFYDLNSTIAGVPLNIGFPSRVFAGFAALPAWVIPVSVGSSVGILFILLVLGLGIGIPMYRVRKLQDASFVNVFKKVDTLTTAVGSVYKKIITQTGVVKKAPSALKAANPSVKKPAAFLKPPVQPPSKPEGEQKAVEVKSEETKS
notes: P110 of the nap particle adhesion complex, Mycoplasma genitalium G37; endogenous and not truncated, with stalk, transmembrane helix and intracellular region (residues up to 1053 are spoken of); The same endogenous protein was also studied in the nap particle purified from M. genitalium; that purification is described in an earlier publication of the authors; also called P110 adhesin of the nap …
B1: binds.
